Data on 8 sequences can be found in the supplement of paper PMC10065799, “High-throughput profiling of sequence recognition by tyrosine kinases and SH2 domains using bacterial peptide display” (eLife, 2023).

One series deals with c-Abl (mouse). Description: phosphorylation enrichment, bacterial display (enrichment ratio); higher = better substrate or ligand; peptides without Tyr show the background.
The test system of the next series is c-Src. The description is as above.
Another series has as its target Jak2 (UniProt O60674). The series is described as above.
The target of the next series is Fyn (UniProt P06241). The series is described as above.
In the next series the target is Hck (UniProt P08631). The description is as above.
Another series concerns AncSZ. The description is as above.
The next series concerns the target EPHB1 (UniProt P54762). The series is described as above.
A further series concerns the target Fes (UniProt P07332). The series is described as above.
The target in the next series is FGFR1 (UniProt P11362). Described as above.
The next series deals with Fer (mouse). Described as above.
Another series concerns the target EPHB2 (UniProt P29323). The series is described as above.
A further series concerns the target MERTK (UniProt Q12866). The description is as above.
A further series has as its target FGFR3 (UniProt P22607). Described as above.
In another series the target is SHP2-C SH2. Kind of series: SH2 binding enrichment of the phosphorylated peptide, bacterial display (enrichment ratio); higher = better substrate or ligand; peptides without Tyr show the background.
For the next series, the target named is c-Src SH2. The description is as above.
A further series deals with Grb2 SH2 (UniProt P62993). The series is described as above.
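For SH2 binding enrichment of the phosphorylated peptide, bacterial display in this document: peptide library displayed on the E. coli surface as eCPX fusions, selected cells deep-sequenced, score is each peptide's frequency after selection divided by its frequency in the input.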
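For phosphorylation enrichment, bacterial display in this document: 11-residue human phosphosite peptides and single-mutation variants displayed on the E. coli surface, counted by deep sequencing, each peptide's frequency after selection divided by its frequency in the unselected input library; frequency after pTyr selection over input frequency; kinase dosed for 20-30% of maximal phosphorylation in three min.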

Chain of Fyn (P06241 whole entry, looked up): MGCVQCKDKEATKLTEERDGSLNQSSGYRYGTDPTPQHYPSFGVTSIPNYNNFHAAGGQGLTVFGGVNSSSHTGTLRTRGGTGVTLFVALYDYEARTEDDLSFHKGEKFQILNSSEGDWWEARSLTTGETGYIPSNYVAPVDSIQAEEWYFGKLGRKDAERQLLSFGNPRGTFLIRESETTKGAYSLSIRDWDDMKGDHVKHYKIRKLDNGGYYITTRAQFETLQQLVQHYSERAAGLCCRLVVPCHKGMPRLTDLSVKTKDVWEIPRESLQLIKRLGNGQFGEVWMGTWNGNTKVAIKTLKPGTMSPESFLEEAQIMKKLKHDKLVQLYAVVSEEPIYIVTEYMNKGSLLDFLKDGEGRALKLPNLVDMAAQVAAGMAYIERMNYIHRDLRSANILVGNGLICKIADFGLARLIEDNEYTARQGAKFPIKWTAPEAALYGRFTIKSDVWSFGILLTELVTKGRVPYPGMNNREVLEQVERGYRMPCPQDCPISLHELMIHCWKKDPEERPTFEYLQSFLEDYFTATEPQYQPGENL
Chain of Fes (P07332 whole entry, looked up): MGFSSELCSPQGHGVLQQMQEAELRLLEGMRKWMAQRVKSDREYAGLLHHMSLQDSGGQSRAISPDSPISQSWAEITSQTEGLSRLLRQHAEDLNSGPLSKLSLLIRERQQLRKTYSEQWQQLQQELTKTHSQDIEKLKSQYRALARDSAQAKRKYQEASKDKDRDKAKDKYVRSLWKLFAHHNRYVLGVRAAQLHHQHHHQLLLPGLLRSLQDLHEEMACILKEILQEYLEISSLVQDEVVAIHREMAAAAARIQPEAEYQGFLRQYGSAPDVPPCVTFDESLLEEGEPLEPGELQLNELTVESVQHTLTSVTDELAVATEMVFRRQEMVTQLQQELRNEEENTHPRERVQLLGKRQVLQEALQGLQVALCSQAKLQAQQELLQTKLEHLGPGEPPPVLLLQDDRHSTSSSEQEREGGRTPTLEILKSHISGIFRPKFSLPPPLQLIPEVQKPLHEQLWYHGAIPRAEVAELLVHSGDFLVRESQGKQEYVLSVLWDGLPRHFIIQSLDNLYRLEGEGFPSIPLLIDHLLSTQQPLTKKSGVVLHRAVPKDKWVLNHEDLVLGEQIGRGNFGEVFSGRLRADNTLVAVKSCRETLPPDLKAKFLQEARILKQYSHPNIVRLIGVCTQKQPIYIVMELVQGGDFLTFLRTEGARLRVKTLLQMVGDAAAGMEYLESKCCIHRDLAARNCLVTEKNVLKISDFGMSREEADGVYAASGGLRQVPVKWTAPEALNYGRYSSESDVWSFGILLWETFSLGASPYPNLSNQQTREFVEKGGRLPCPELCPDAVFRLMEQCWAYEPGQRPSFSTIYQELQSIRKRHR
Chain of EPHB2 (P29323 whole entry, looked up): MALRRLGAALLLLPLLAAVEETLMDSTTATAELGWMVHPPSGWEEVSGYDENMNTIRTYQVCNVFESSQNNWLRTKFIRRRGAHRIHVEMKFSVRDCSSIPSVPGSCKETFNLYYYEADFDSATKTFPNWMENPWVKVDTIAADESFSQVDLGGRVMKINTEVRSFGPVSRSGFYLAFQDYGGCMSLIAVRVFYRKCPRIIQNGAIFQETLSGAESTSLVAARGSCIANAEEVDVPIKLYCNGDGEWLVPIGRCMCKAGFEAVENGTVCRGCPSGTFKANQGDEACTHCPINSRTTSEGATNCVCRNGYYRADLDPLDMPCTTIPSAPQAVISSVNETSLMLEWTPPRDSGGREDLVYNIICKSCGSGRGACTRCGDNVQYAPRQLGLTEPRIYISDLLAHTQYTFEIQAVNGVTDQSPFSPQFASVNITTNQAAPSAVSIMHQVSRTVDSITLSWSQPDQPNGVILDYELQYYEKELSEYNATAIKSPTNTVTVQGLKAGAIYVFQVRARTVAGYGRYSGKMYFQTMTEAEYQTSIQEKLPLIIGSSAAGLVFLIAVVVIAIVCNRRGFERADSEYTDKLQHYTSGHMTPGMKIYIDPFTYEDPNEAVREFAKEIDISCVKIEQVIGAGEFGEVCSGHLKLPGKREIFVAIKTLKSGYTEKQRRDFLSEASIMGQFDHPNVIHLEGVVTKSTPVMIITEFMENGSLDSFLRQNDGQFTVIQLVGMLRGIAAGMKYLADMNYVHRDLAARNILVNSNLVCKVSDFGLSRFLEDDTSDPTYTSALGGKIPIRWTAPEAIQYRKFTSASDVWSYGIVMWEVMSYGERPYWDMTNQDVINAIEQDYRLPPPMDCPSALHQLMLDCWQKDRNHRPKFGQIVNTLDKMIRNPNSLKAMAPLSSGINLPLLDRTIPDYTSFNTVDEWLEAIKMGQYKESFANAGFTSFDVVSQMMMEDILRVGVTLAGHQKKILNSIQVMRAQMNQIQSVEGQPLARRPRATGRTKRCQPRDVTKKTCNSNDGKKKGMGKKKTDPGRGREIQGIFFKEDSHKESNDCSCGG
Chain of Jak2 (O60674 whole entry, looked up): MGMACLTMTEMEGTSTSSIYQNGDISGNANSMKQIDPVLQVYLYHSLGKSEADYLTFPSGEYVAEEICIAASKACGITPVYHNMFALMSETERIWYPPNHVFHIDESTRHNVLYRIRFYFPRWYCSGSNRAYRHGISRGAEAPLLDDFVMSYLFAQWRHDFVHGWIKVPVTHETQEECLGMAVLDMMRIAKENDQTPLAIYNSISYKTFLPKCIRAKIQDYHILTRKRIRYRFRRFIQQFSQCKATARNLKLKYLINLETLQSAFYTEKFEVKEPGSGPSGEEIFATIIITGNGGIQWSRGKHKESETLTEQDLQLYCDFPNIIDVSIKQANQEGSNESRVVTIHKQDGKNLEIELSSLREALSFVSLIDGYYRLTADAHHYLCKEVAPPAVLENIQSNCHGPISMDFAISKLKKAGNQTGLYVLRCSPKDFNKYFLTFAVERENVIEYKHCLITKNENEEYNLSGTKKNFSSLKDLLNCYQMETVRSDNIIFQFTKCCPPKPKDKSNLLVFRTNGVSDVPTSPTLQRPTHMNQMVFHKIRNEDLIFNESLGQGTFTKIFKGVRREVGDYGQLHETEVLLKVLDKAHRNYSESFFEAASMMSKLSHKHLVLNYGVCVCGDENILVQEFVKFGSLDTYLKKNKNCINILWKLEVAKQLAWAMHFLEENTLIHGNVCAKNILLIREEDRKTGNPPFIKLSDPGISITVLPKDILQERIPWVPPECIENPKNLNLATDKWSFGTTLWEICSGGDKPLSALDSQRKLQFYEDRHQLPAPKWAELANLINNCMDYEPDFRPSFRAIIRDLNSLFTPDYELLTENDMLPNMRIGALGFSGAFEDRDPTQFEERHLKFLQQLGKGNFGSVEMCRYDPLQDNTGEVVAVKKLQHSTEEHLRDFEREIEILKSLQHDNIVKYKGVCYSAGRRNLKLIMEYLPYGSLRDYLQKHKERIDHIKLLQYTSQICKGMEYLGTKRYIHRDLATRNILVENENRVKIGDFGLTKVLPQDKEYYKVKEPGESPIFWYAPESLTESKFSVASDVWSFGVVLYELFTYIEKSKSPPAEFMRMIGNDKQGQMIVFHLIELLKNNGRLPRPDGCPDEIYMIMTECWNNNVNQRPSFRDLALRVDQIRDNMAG
Chain of Hck (P08631 whole entry, looked up): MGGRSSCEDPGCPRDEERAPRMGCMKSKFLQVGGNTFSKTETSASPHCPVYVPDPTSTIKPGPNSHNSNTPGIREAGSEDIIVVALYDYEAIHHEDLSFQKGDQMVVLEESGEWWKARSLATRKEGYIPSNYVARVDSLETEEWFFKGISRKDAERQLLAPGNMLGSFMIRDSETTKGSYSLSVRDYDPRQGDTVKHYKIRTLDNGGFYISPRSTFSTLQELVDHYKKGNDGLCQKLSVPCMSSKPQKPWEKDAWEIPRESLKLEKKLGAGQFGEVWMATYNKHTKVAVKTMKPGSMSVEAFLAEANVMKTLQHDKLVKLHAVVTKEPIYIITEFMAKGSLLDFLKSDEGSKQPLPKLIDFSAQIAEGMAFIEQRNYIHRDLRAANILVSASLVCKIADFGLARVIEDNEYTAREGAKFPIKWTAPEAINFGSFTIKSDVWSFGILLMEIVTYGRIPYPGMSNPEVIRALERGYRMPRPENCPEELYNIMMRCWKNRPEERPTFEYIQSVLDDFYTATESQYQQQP
Chain of FGFR1 (P11362 whole entry, looked up): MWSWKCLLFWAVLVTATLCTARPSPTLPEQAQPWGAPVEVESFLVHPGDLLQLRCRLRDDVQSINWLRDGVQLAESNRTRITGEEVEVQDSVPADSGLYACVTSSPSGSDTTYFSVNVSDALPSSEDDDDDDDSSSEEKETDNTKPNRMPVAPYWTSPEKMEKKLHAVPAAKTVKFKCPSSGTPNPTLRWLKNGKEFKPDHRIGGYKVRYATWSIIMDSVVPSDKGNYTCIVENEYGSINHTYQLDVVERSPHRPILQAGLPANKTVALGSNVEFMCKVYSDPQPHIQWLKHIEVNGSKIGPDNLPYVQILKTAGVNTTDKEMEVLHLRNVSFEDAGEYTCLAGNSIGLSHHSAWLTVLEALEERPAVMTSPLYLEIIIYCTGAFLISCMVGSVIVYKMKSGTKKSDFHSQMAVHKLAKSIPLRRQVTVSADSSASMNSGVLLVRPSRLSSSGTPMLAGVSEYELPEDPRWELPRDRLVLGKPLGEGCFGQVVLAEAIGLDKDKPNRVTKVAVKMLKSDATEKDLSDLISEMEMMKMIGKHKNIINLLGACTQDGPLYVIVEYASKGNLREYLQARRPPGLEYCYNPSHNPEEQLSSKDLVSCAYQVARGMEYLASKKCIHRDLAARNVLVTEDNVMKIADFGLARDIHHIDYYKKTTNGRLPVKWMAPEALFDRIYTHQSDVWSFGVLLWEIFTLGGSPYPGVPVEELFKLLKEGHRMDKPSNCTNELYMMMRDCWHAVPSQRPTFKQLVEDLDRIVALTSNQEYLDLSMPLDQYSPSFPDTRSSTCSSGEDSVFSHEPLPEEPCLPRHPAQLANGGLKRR

RHPLDYLRQYP [NARS2_Y138_E137D]: the phosphorylation enrichment in the series with c-Abl (mouse) was found to be 0.627; in the series with c-Src, 0.411; with Jak2, 1.01; with Fyn, 0.547; in the series with Hck it was 0.753; in the series on AncSZ, 0.914. Further, the phosphorylation enrichment with EPHB1 worked out at 0.799; in the series with Fes it was 1.15; with FGFR1, 0.405; with Fer (mouse) it was 0.594; in the series with EPHB2 it was 0.96; in the series with MERTK it was 0.509. Moreover, in the series with FGFR3, the phosphorylation enrichment is 0.694. Further, the SH2 binding enrichment with SHP2-C SH2 was found to be 1.71; in the series with c-Src SH2, 0.894; with Grb2 SH2, 1.36.
On to RHPLEYLRQYP [NARS2_Y138], for which the phosphorylation enrichment with c-Abl (mouse) was 1.37; in the series on c-Src it was 0.577; with Jak2, 1.22; in the series with Fyn, 0.579; in the series with Hck, 0.561; in the series on AncSZ, 0.664. Further, the phosphorylation enrichment with EPHB1 came out at 0.523; in the series with Fes, 1.13; in the series with FGFR1 it was 0.75; in the series on Fer (mouse) it was 0.536; with EPHB2 it was 0.45; in the series with MERTK, 0.454. Besides, the phosphorylation enrichment with FGFR3 came out at 0.586. The values for the SH2 binding enrichment with SHP2-C SH2, with c-Src SH2 and in the series with Grb2 SH2 were 0.938, 0.775 and 1.38, respectively.
In the case of RHPREYQDLLN [DES_Y388_L385P], the phosphorylation enrichment in the series with c-Abl (mouse) is 0.487; in the series on c-Src, 0.464; in the series with Jak2, 0.785; with Fyn, 0.698; with Hck it was 0.463; with AncSZ, 0.668. For the same sequence, the phosphorylation enrichment is 0.537 with EPHB1; 0.545 with Fes; 0.377 with FGFR1; 0.327 in the series on Fer (mouse); 0.569 in the series with EPHB2; 0.41 with MERTK. For the same sequence, the phosphorylation enrichment with FGFR3 came out at 0.572. The SH2 binding enrichment in the series with SHP2-C SH2 came to 0.906; in the series with c-Src SH2 it was 1.29; with Grb2 SH2, 1.06.
On to RHSGSYFVTSV [APC_Y2838_L2839F], for which the phosphorylation enrichment in the series with c-Abl (mouse) is 0.741; with c-Src, 0.785; with Jak2 it was 0.89; with Fyn, 0.598; with Hck it was 0.591; in the series on AncSZ, 0.895. Besides, the phosphorylation enrichment with EPHB1 stood at 0.517; in the series with Fes, 0.845; with FGFR1 it was 0.574; in the series with Fer (mouse) it was 0.444; with EPHB2, 0.654; with MERTK, 0.676. The phosphorylation enrichment with FGFR3 came to 0.565. In addition, the SH2 binding enrichment with SHP2-C SH2 was determined as 0.499; with c-Src SH2, 0.547; with Grb2 SH2, 0.787.
For RKETFYILSCR [GUCY2C_Y681_T682I], the phosphorylation enrichment in the series on c-Abl (mouse) is 1.1; in the series with c-Src it was 0.448; in the series with Jak2, 0.953; in the series with Fyn, 0.373; with Hck, 0.355; in the series with AncSZ, 1.44. For the same sequence, the phosphorylation enrichment stood at 0.546 with EPHB1; 1.59 with Fes; 0.553 with FGFR1; 0.665 in the series on Fer (mouse); 0.474 with EPHB2; 0.525 with MERTK. The phosphorylation enrichment with FGFR3 was 0.917. In addition, the results for the SH2 binding enrichment with SHP2-C SH2, with c-Src SH2 and with Grb2 SH2 were 0.663, 0.519 and 1.15, respectively.
On to RLDGEYFTLQI [TP53_Y327_P322R], for which the phosphorylation enrichment was 1.2 in the series on c-Abl (mouse); 2.16 in the series on c-Src; 2.46 with Jak2; 1.34 with Fyn; 0.772 with Hck; 1.89 in the series with AncSZ. Besides, the phosphorylation enrichment worked out at 0.748 with EPHB1; 1.54 in the series with Fes; 5.82 with FGFR1; 0.72 in the series on Fer (mouse); 0.716 with EPHB2; 0.538 with MERTK. Moreover, in the series with FGFR3, the phosphorylation enrichment amounted to 4.05. The SH2 binding enrichment with SHP2-C SH2 amounted to 0.572; with c-Src SH2, 0.484; with Grb2 SH2, 0.701.
For RLGDLYKEEMR [VIM_Y150_E151K], the phosphorylation enrichment in the series with c-Abl (mouse) came to 0.762; in the series with c-Src, 0.587; with Jak2, 0.995; in the series with Fyn it was 0.756; with Hck it was 0.824; with AncSZ it was 1.08. The phosphorylation enrichment with EPHB1 was 0.779; with Fes, 1.17; with FGFR1, 0.674; in the series on Fer (mouse), 0.43; in the series with EPHB2 it was 0.672; with MERTK, 0.362. The phosphorylation enrichment with FGFR3 is 0.832. For the same sequence, the SH2 binding enrichment with SHP2-C SH2 was 0.752; with c-Src SH2, 0.607; in the series with Grb2 SH2, 1.09.
Consider RLLREYQELMN [KRT75_Y434], for which the phosphorylation enrichment stood at 0.67 in the series on c-Abl (mouse); 0.421 with c-Src; 1.11 with Jak2; 0.746 in the series with Fyn; 0.458 in the series with Hck; 0.759 with AncSZ. The phosphorylation enrichment in the series with EPHB1 stood at 0.691; with Fes, 0.817; with FGFR1 it was 0.785; with Fer (mouse) it was 0.465; with EPHB2 it was 0.613; with MERTK, 0.376. Moreover, the phosphorylation enrichment with FGFR3 worked out at 0.583. For the same sequence, the SH2 binding enrichment with SHP2-C SH2 stood at 0.995; with c-Src SH2, 3.41; with Grb2 SH2, 1.04.
